Results published in patent publication US9284543B2, “Neutral active soluble truncated PH20 polypeptides and uses thereof” (Halozyme, Inc., priority 2008, dated 2016).

Assay: Hyaluronidase activity of N-glycan site specific deglycosylation mutants (biotinylated-HA assay)
Format: biochemical
Conditions: media of transfected CHO-S cells
Protocol: In short, a 4×BH 96-well plate was coated with biotinylated-HA (1.1 MDa). The 72 hour post transfection supernatant from cells transfected with human PH20 hyaluronidase carboxy-terminus deletion mutants was diluted in buffer at either pH 7.4 or pH 5.5 and added to individual wells of the plate and allowed to incubate at 37° C. for 90 minutes. The reaction was terminated by addition of 4M guanidine HCl. The wells were washed 4× with Phosphate Buffered Saline with Tween20 (PBST) to remove any digested biotinylated-HA followed by addition of streptavidin-HRP for 1 hour at room temperature. The wells were washed 4× with PBST and the plate was developed with TMB. The plate was read at 450 nm using an ELISA plate reader. Hyaluronidase activity (in Units/mL) was determined by interpolating the measured absorbance at 450 nm with a hyaluronidase reference standard curve. Full length mature human PH20 hyaluronidase and untransfected CHO cells were used as positive and negative controls.
PH20sHis (SEQ ID NO:210) was used as a template for mutagenesis of each asparagine residue to alanine using QuikChange® Site-Directed Mutagenesis Kit (Cat No. 200518, Stratagene). […] Six single mutants were generated, one for each of the N-glycosylation sites. Additionally, three double mutants and a triple mutant were generated for asparagines N82, N166 and N254, all of which are occupied by complex type glycans. Finally, a double mutant N368A/N393A was generated, lacking high mannose glycans. The mutants were transfected into CHO—S cells and expression was performed as described in Example 2A. Secretion into the media and hyaluronidase activity were determined as described in Examples 3 and 5, above.

Activity pH 5.5 | Activity pH 7.4 | Molecule
YES | YES | N254A: PH20sHis N-glycosylation site mutant N254A, SEQ ID NO:205 (protein, His tag; PH20sHis N254A) MGVLKFKHIFFRSFVKSSGVSQIVFTFLLIPCCLTLNFRAPPVIPNVPFLWAWNAPSEFCLGKFDEPLDMSLFSFIGSPRINATGQGVTIFYVDRLGYYPYIDSITGVTVNGGIPQKISLQDHLDKAKKDITFYMPVDNLGMAVIDWEEWRPTWARNWKPKDVYKNRSIELVQQQNVQLSLTEATEKAKQEFEKAGKDFLVETIKLGKLLRPNHLWGYYLFPDCYNHHYKKPGYNGSCFNVEIKRNDDLSWLWAESTALYPSIYLNTQQSPVAATLYVRNRVREAIRVSKIPDAKSPLPVFAYTRIVFTDQVLKFLSQDELVYTFGETVALGASGIVIWGTLSIMRSMKSCLLLDNYMETILNPYIINVTLAAKMCSQVLCQEQGVCIRKNWNSSDYLHLNPDNFAIQLEKGGKFTVRGKPTLEDLEQFSEKFYCSCYSTLSCKEKADVKDTDAVDVCIADGVCIDAFLKPPMETEEPQIFYNASPSTLSHHHHHH
YES | YES | N82A/N166A: PH20sHis double mutant, SEQ ID NO:206 (protein, His tag; PH20sHis N82A/N166A) MGVLKFKHIFFRSFVKSSGVSQIVFTFLLIPCCLTLNFRAPPVIPNVPFLWAWNAPSEFCLGKFDEPLDMSLFSFIGSPRIAATGQGVTIFYVDRLGYYPYIDSITGVTVNGGIPQKISLQDHLDKAKKDITFYMPVDNLGMAVIDWEEWRPTWARNWKPKDVYKARSIELVQQQNVQLSLTEATEKAKQEFEKAGKDFLVETIKLGKLLRPNHLWGYYLFPDCYNHHYKKPGYNGSCFNVEIKRNDDLSWLWNESTALYPSIYLNTQQSPVAATLYVRNRVREAIRVSKIPDAKSPLPVFAYTRIVFTDQVLKFLSQDELVYTFGETVALGASGIVIWGTLSIMRSMKSCLLLDNYMETILNPYIINVTLAAKMCSQVLCQEQGVCIRKNWNSSDYLHLNPDNFAIQLEKGGKFTVRGKPTLEDLEQFSEKFYCSCYSTLSCKEKADVKDTDAVDVCIADGVCIDAFLKPPMETEEPQIFYNASPSTLSHHHHHH
YES | YES | N166A: PH20sHis N-glycosylation site mutant N166A, SEQ ID NO:203 (protein, His tag; PH20sHis N166A) MGVLKFKHIFFRSFVKSSGVSQIVFTFLLIPCCLTLNFRAPPVIPNVPFLWAWNAPSEFCLGKFDEPLDMSLFSFIGSPRINATGQGVTIFYVDRLGYYPYIDSITGVTVNGGIPQKISLQDHLDKAKKDITFYMPVDNLGMAVIDWEEWRPTWARNWKPKDVYKARSIELVQQQNVQLSLTEATEKAKQEFEKAGKDFLVETIKLGKLLRPNHLWGYYLFPDCYNHHYKKPGYNGSCFNVEIKRNDDLSWLWNESTALYPSIYLNTQQSPVAATLYVRNRVREAIRVSKIPDAKSPLPVFAYTRIVFTDQVLKFLSQDELVYTFGETVALGASGIVIWGTLSIMRSMKSCLLLDNYMETILNPYIINVTLAAKMCSQVLCQEQGVCIRKNWNSSDYLHLNPDNFAIQLEKGGKFTVRGKPTLEDLEQFSEKFYCSCYSTLSCKEKADVKDTDAVDVCIADGVCIDAFLKPPMETEEPQIFYNASPSTLSHHHHHH
YES | YES | N82A: PH20sHis N-glycosylation site mutant N82A, SEQ ID NO:202 (protein, His tag; PH20sHis N82A) MGVLKFKHIFFRSFVKSSGVSQIVFTFLLIPCCLTLNFRAPPVIPNVPFLWAWNAPSEFCLGKFDEPLDMSLFSFIGSPRIAATGQGVTIFYVDRLGYYPYIDSITGVTVNGGIPQKISLQDHLDKAKKDITFYMPVDNLGMAVIDWEEWRPTWARNWKPKDVYKNRSIELVQQQNVQLSLTEATEKAKQEFEKAGKDFLVETIKLGKLLRPNHLWGYYLFPDCYNHHYKKPGYNGSCFNVEIKRNDDLSWLWNESTALYPSIYLNTQQSPVAATLYVRNRVREAIRVSKIPDAKSPLPVFAYTRIVFTDQVLKFLSQDELVYTFGETVALGASGIVIWGTLSIMRSMKSCLLLDNYMETILNPYIINVTLAAKMCSQVLCQEQGVCIRKNWNSSDYLHLNPDNFAIQLEKGGKFTVRGKPTLEDLEQFSEKFYCSCYSTLSCKEKADVKDTDAVDVCIADGVCIDAFLKPPMETEEPQIFYNASPSTLSHHHHHH
YES | YES | N166A/N254A: PH20sHis double mutant, SEQ ID NO:208 (protein, His tag; PH20sHis N166A/N254A) MGVLKFKHIFFRSFVKSSGVSQIVFTFLLIPCCLTLNFRAPPVIPNVPFLWAWNAPSEFCLGKFDEPLDMSLFSFIGSPRINATGQGVTIFYVDRLGYYPYIDSITGVTVNGGIPQKISLQDHLDKAKKDITFYMPVDNLGMAVIDWEEWRPTWARNWKPKDVYKARSIELVQQQNVQLSLTEATEKAKQEFEKAGKDFLVETIKLGKLLRPNHLWGYYLFPDCYNHHYKKPGYNGSCFNVEIKRNDDLSWLWAESTALYPSIYLNTQQSPVAATLYVRNRVREAIRVSKIPDAKSPLPVFAYTRIVFTDQVLKFLSQDELVYTFGETVALGASGIVIWGTLSIMRSMKSCLLLDNYMETILNPYIINVTLAAKMCSQVLCQEQGVCIRKNWNSSDYLHLNPDNFAIQLEKGGKFTVRGKPTLEDLEQFSEKFYCSCYSTLSCKEKADVKDTDAVDVCIADGVCIDAFLKPPMETEEPQIFYNASPSTLSHHHHHH
YES | YES | N82A/N254A: PH20sHis double mutant, SEQ ID NO:207 (protein, His tag; PH20sHis N82A/N254A) MGVLKFKHIFFRSFVKSSGVSQIVFTFLLIPCCLTLNFRAPPVIPNVPFLWAWNAPSEFCLGKFDEPLDMSLFSFIGSPRIAATGQGVTIFYVDRLGYYPYIDSITGVTVNGGIPQKISLQDHLDKAKKDITFYMPVDNLGMAVIDWEEWRPTWARNWKPKDVYKNRSIELVQQQNVQLSLTEATEKAKQEFEKAGKDFLVETIKLGKLLRPNHLWGYYLFPDCYNHHYKKPGYNGSCFNVEIKRNDDLSWLWAESTALYPSIYLNTQQSPVAATLYVRNRVREAIRVSKIPDAKSPLPVFAYTRIVFTDQVLKFLSQDELVYTFGETVALGASGIVIWGTLSIMRSMKSCLLLDNYMETILNPYIINVTLAAKMCSQVLCQEQGVCIRKNWNSSDYLHLNPDNFAIQLEKGGKFTVRGKPTLEDLEQFSEKFYCSCYSTLSCKEKADVKDTDAVDVCIADGVCIDAFLKPPMETEEPQIFYNASPSTLSHHHHHH
YES | YES | N82A/N166A/N254A: PH20sHis triple mutant, SEQ ID NO:209 (protein, His tag; PH20sHis N82A/N166A/N254A) MGVLKFKHIFFRSFVKSSGVSQIVFTFLLIPCCLTLNFRAPPVIPNVPFLWAWNAPSEFCLGKFDEPLDMSLFSFIGSPRIAATGQGVTIFYVDRLGYYPYIDSITGVTVNGGIPQKISLQDHLDKAKKDITFYMPVDNLGMAVIDWEEWRPTWARNWKPKDVYKARSIELVQQQNVQLSLTEATEKAKQEFEKAGKDFLVETIKLGKLLRPNHLWGYYLFPDCYNHHYKKPGYNGSCFNVEIKRNDDLSWLWAESTALYPSIYLNTQQSPVAATLYVRNRVREAIRVSKIPDAKSPLPVFAYTRIVFTDQVLKFLSQDELVYTFGETVALGASGIVIWGTLSIMRSMKSCLLLDNYMETILNPYIINVTLAAKMCSQVLCQEQGVCIRKNWNSSDYLHLNPDNFAIQLEKGGKFTVRGKPTLEDLEQFSEKFYCSCYSTLSCKEKADVKDTDAVDVCIADGVCIDAFLKPPMETEEPQIFYNASPSTLSHHHHHH
